Experiment in all cases: split reporter
The target of series [1] is T1, FGF14 (1b isoform), wild type, fused to split firefly luciferase fragments (UniProt Q92915).
T1 sequence: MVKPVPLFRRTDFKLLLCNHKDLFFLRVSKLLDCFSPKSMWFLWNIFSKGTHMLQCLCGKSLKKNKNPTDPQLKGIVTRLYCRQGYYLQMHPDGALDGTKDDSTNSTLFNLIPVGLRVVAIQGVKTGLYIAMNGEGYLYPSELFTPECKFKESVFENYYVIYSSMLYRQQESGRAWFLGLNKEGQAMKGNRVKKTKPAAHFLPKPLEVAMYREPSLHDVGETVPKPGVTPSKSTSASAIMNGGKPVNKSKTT

Series [2] deals with FGF14^Y153N/V155N (1b isoform) fused to split firefly luciferase fragments.
The target of series [3] is T1, FGF14 (1b isoform), wild type, fused to split firefly luciferase fragments. This is another data set of the same source.
Series [4] has as its target FGF14^Y153N/V155N (1b isoform) fused to split firefly luciferase fragments. To be noted: split reporter (BiFC, NanoBiT).

In the case of “FGF14^Y153N/V155N (1b isoform) fused to split firefly luciferase fragments (natural protein)”, the % maximal luminescence against the FGF14:FGF14 dimer in series [1] stood at 109%; in series [2], 136%.

Take Ac-FLPK-NH2 [Ac-FLPK-NH2]: the % maximal luminescence of CLuc-FGF14:FGF14-NLuc left with 10 uM peptide in series [3] amounted to 75%. For the same molecule, the “% maximal luminescence of the FGF14^Y153N/V155N:FGF14 heterodimer left with FLPK” value in series [4] was 90.8 ± 5.1%.

For the origin of these results see publication PMC4809639.
